No end group written: not given here.

For one experiment, the target named is T1, receptors on T84 cells (Homo sapiens, UniProt P25092).
T1 construct: host or cells: T84 human colon carcinoma cells
Put plainly: 125I-ST radioligand competitive binding assay on T84 cells. The following applies: 30 min at 37° C., pH 5.5. On the procedure:
(§1) FIG. 3(a) and (b). FIG. 3(a) Concentration-response effect of synthetic human uroguanylin, human guanylin and E. coli ST5-18 (STa) on cyclic GMP levels in T84 cells. The cells were incubated with various concentrations of ligands for 30 min. Values represent mean±SE (n=4). FIG. 3(b) Displacement of ^125 I-STa specific binding from T84 cells by human uroguanylin, human guanylin and STa. Cells were incubated for 30 min at 37° C. with labeled STa and indicated concentrations of ligands. Specific binding (%) was determined by dividing the specifically bound ^125 I-STa at each ligand concentration by the specifically bound ^125 I-STa in the absence of ligands. Each determination represents the mean of four wells examined.
Radioligand Binding Assay. ^125 I-labeled ST5-18 (^125 I-ST) was prepared by the Iodo-Gen method as previously described (3). T84 cell monolayers were washed two times with 1.0 ml per well of ice-cold binding assay buffer (Earle's medium containing 25 mM 2[N-Morpholino]ethanesulfonic acid (MES), pH 5.5). The cells were incubated for 30 min at 37° C. in 0.5 ml per well of binding assay buffer with ^125 I-ST (100,000 cpm per well) and unlabeled peptides. […] This volume was transferred to tubes and assayed for radioactivity by a multigamma counter. Results are expressed as the percentage specifically bound.

The next experiment concerns the target T2, GC-C in T84 cells (Homo sapiens, UniProt P25092).
T2 construct: host or cells: T84 human colon carcinoma cells
Put plainly: Cyclic GMP accumulation in T84 cells. It counts as cell-based. The following applies: for bioactivity of purified urine peaks in T84 cell cyclic GMP bioassay: peptides purified from human urine, microbore HPLC C8. The protocol: as §1
Cell Culture. A cultured human colon carcinoma cell line (T84) was obtained from the American Type Culture Collection (Rockville, Maryland) (ATCC No. CCL 248) at passage 52. Cells were grown to confluency in 24-well culture plates with a 1:1 mixture of Ham's F12 medium and Dulbecco's modified Eagle's medium (DMEM), supplemented with 10% fetal calf serum, 100 IU/ml penicillin, and 100 μg/ml streptomycin. Cells were used at passages 54-60.
Cyclic GMP determination. Monolayers of T84 cells in 24-well plates were washed twice with 1 ml/well DMEM, then incubated at 37° C. for 10 min with 0.5 ml DMEM containing 1 mM isobutylmethylxanthine, a phosphodiesterase inhibitor. Agents and fractions were then added for the indicated time as described in the results section, below. The media was then aspirated and the reaction terminated by the addition of ice cold 0.5 ml of 0.1N HC1. Aliquots were then evaporated to dryness under nitrogen and then resuspended in 5 mM sodium acetate buffer, pH 6.4. The samples were then measured for cyclic GMP by conventional RIA as described by Steiner et al. (13).

Another experiment concerns rat proximal colon. Put plainly: Short-circuit current (Isc) in rat proximal colon, Ussing chamber. Particulars: 0.2 μM, mucosal addition. On the procedure: FIG. 4. Effect of synthetic human uroguanylin on short-circuit current (Isc) of rat colon. Effect of human uroguanylin (0.2 μM) on Isc across rat proximal colon after a mucosal addition. The response is characteristic of results from 3 other experiments.
Measurement of Short-Circuit Current (ISc) in Rat Colon. Rat proximal colon tissue, consisting of only mucosa and submucosa, was mounted between two Ussing half-chambers and bathed on both sides similar to previously reported (3). Electrical measurements were monitored with an automatic voltage clamp, and direct connecting voltage-and current-passing electrodes were used to measure trans epithelial potential difference and Isc. Tissues were equilibrated under short-circuit conditions until Isc had stabilized.

T2 sequence (P25092 24-1073): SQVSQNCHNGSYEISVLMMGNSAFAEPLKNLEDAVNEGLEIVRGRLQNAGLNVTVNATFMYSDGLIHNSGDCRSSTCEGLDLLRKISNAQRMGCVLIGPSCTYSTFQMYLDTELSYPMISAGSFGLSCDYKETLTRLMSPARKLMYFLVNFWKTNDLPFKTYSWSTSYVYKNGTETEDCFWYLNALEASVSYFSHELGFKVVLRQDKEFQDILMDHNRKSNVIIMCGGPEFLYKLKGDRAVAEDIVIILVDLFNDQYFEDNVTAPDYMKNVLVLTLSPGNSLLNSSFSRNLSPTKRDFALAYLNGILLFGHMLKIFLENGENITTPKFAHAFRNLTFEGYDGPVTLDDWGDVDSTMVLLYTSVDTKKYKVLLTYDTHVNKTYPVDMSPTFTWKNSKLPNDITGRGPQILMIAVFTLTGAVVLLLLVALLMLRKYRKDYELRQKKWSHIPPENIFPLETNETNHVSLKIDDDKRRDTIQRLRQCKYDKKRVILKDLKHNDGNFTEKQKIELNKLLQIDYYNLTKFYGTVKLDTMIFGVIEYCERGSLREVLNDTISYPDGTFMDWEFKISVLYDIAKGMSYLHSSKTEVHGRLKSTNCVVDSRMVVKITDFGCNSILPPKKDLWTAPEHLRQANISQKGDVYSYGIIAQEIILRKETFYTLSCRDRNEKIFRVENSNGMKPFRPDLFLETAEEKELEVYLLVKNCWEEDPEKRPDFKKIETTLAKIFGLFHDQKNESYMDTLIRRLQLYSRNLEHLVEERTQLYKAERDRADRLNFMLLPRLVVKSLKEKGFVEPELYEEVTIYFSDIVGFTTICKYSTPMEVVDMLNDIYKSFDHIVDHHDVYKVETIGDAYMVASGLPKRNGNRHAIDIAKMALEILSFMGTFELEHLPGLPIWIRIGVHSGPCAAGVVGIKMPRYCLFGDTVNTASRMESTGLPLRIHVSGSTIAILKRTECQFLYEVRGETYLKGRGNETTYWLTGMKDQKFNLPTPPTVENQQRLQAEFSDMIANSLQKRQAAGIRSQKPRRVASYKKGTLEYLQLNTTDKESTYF
T1 sequence (P25092 24-1073): as above

Regarding “human guanylin: first known endogenous activator of intestinal guanylate cyclase (PGTCEICAYAACTGC; ends and bridges not checked; cysteine pairing not given here; UniProt Q02747 101-115, looked up)”, in the experiment with receptors on T84 cells, the “relative affinity, displacement of 125I-ST5-18 specific binding from T84 cells” value was “much lower affinity”.
As to “DDCELCVNVACTGCL [peak 2, peptide from human urine lacking the N-terminal asparagine, likely a degradation product of peak 1]”, the “bioactivity of purified urine peaks in T84 cell cyclic GMP bioassay” value in the experiment with GC-C in T84 cells is “bioactive”.
With “NDDCELCVNVACTGCL [human uroguanylin, sedecapeptide, endogenous regulator of intestinal guanylate cyclase, isolated from human urine and chemically synthesized]”, the “effect on short-circuit current (Isc) of rat proximal colon” value with rat proximal colon is on record as “sustained rise in Isc”. The “effect on T84 cell cyclic GMP levels” value with GC-C in T84 cells (T84 cells, 30 min incubation with ligand, 1 mM isobutylmethylxanthine) is reported as “concentration-dependent increase”. In the experiment with GC-C in T84 cells (T84 cells, cyclic GMP, concentration-response), the “relative potency for activation of GC-C in T84 cells” value was “more potent than human guanylin, but less potent than ST”. Besides, the “bioactivity of purified urine peaks in T84 cell cyclic GMP bioassay” value with GC-C in T84 cells is reported as “bioactive”.

Source of the values: patent US5489670A, “Human uroguanylin” (G. D. Searle & Co., priority 1993, dated 1996).
